Experimental data reported in patent publication US20250152729A1 (CANCER RESEARCH TECHNOLOGY, published 2025).

Columns and labels:
[1] = target: T1, human SEMA4B expressed on expi293 cells (human, UniProt Q9NPR2 44-837); assay: Mirrorball direct binding, dilution series on expi293 cells transiently transfected with human SEMA4B, anti-human Alexa Fluor 647
T1 construct: whole, on cells
T1 sequence (looked up): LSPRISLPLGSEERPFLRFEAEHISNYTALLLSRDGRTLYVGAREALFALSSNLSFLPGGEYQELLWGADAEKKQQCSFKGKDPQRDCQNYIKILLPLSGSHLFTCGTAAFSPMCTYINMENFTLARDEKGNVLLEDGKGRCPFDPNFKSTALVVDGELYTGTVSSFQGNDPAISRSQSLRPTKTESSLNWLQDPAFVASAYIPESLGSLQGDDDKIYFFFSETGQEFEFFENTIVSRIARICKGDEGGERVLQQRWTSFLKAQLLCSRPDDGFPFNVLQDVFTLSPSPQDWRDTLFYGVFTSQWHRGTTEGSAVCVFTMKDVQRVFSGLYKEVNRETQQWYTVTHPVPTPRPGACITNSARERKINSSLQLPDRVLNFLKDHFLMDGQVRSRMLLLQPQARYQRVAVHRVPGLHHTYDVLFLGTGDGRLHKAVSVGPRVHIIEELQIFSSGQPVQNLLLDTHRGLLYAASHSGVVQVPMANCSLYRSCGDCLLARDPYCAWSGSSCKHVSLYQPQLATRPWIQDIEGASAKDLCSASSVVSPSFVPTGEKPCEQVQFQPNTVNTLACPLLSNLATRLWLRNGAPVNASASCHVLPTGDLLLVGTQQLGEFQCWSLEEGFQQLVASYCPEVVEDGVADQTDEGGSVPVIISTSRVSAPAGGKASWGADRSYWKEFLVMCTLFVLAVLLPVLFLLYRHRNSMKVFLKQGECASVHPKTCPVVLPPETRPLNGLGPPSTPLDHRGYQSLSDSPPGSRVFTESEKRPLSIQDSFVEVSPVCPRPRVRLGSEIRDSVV
Text: (§1) Hits from the primary screening were re-formatted into the human Alya IgG1 vector and re-expressed and purified as described in section 4.1. In addition, a single clone was identified that contained an Asparagine deamidation motif (Asn Gly) within its VHCDR2. This potential sequence liability was de-risked by synthesising de novo two clonal variant VH genes (Asn Ala and Gln Gly) and cloning these sequences into the human Alya IgG1 expression vector. To determine the specificity profile of each purified human Alya IgG1, a dilution series was tested for binding to human SEMA4A, mouse SEMA4A, cyno SEMA4A, human SEMA4B and mock transfected cells (transient transfections set up in expi 293 cells.) The five assays employed methods described in section 2.3, using the appropriate cells and substituting the un-purified scFv periplasmic preparation with the recombinant human Alya IgG1 dilution series. Data was analysed as Count x median mean intensity (x FLU).

[2] = target: T2, cynomolgus SEMA4A expressed on expi293 cells (UniProt ID G7NV79) (cynomolgus, UniProt Q9H3S1 33-761 (human entry)); assay: Mirrorball direct binding, dilution series on expi293 cells transiently transfected with cyno SEMA4A, anti-human Alexa Fluor 647
T2 construct: Transient transfection in expi293 cells; also called cyno SEMA4A
T2 chain: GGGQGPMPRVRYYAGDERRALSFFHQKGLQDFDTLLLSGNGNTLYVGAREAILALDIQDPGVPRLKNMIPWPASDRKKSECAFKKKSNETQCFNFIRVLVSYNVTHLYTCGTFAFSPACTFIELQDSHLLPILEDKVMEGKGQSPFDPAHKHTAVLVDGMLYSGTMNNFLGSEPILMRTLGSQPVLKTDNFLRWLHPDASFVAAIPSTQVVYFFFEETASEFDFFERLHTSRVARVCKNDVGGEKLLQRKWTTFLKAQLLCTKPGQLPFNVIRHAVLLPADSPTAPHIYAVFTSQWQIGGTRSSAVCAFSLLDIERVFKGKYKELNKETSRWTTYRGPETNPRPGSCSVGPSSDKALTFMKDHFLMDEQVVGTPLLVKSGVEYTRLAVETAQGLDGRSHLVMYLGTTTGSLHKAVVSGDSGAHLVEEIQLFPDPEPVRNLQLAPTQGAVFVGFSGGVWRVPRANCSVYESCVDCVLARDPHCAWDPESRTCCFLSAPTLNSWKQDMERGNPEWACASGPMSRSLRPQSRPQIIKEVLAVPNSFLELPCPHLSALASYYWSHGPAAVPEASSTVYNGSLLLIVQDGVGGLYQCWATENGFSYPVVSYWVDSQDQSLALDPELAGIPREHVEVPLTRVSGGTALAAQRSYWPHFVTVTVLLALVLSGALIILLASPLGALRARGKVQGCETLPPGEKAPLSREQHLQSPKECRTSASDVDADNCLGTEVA
Text: as §1

B1: C0120906 human Alya IgG1 (antibody, V domains shown)
VH: EVQLVQSGPEVKKPGASVKISCKASGYKLNDPGVHGVSWVRQAPGQGLEWMGWISTLNGDTRYAQKFQGRVTMATDSSTSTIYMDLRSLKSDDTALYYCARDDYTAIFDFWGRGTLVTVSS
VL: QSVLTQPPSVSVAPGQTASITCGGSNIGSQSVHWYQQKPGQAPVLVVYDDSDRPSGIPERFSGSKSGNTASLILSRVEAGDEADYYCQVWDSSTDHHVFGTGTKVTVL
notes: Fully human, phage display derived; human IgG1 Alya constant (239iCys, S442C, EU); unconjugated
binding result [1]: no binding (tested: log (M) -8 (1e-8 M))

B2: C0120917 human Alya IgG1 (antibody, V domains shown)
VH: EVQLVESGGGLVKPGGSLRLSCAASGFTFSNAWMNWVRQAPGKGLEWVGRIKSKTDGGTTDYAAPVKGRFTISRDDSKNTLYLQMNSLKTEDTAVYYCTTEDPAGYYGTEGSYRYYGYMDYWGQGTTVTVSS
VL: NFMLTQPHSVSESPGKTVTISCTASGDTLDNKYVNWYQVRPGSAPATLIFHYEERDSGVPDRFSGSFDASSNSASLTISGLQTADEADYFCQSYDSKRDNLVVFGGGTKVTVL
notes: as for B1
binding result [1]: no binding (tested: log (M) -8 (1e-8 M))

B3: C0120905 human Alya IgG1 (antibody, V domains shown)
VH: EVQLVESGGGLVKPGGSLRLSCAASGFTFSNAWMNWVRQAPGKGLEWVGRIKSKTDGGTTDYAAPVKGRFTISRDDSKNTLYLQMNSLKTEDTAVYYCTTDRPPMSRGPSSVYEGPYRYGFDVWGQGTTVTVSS
VL: NFMLTQPHSVSESPGKTVTISCTGSGGNIVDNFVQWHQQRPGSAPRTVIYEDDQRPSGVPDRFSASVDSSSNSGTLSISGLKTEDEADYYCQSYDGANRWVFGGGTKLTVL
notes: as for B1
binding result [1]: no binding (tested: log (M) -8 (1e-8 M))

B4: 5Hg4-5Lg5 human Alya IgG1 (antibody, V domains shown)
VH: QVQLVQSGSELKKPGASVKVSCKASGYTFTDYWMHWVRQAPGQGLEWMGAIDTSDSYTSYNQKFKGRFVFSLDTSVSTAYLQICSLKAEDTAVYYCARDYGNFYYYAMDYWGQGTLVTVSS
VL: QSVVTQPPSVSGAPGQRVTISCRSSTGAVTTSNYANWYQQLPGTAPKLLIYGTNNRAPGVPDRFSGSKSGASASLAITGLQAEDEADYYCALWYSNHWVFGGGTKLTVL
notes: Humanised 5E3; human IgG1 Alya constant (239iCys, S442C, EU), lambda light chain; purified, unconjugated
binding result [2]: binds

B5: 5Hg4-5Lg4 human Alya IgG1 (antibody, V domains shown)
VH: QVQLVQSGSELKKPGASVKVSCKASGYTFTDYWMHWVRQAPGQGLEWMGAIDTSDSYTSYNQKFKGRFVFSLDTSVSTAYLQICSLKAEDTAVYYCARDYGNFYYYAMDYWGQGTLVTVSS
VL: QSALTQPPSVSGSPGQSVTISCRSSTGAVTTSNYANWYQQPPGTAPKLMIYGTNNRAPGVPDRFSGSKSGNTASLTISGLQAEDEADYYCALWYSNHWVFGGGTKLTVL
notes: as for B4
binding result [2]: binds

B6: C0120914 human Alya IgG1 (antibody, V domains shown)
VH: QVQLQESGPGLVKPSETLSLTCTVSGGSVSSGRYDWSWIRQPPGKGLEWIGHIYYTGITDYNPSLRSRVTISADKPKNQFSLKLNSVTAADTAVYYCARGPFFDPWGQGTMVTVSS
VL: QSVLTQPPSVSVAPGQTASLTCGANNIGSKSVQWYQQKPGQAPVLVVYDGSDRPSGIPDRFSGSSSENTATLTISRVEAGDEADYYCQLWDSVTDRPVFGGGTKVTVL
notes: as for B1
binding result [1]: no binding (tested: log (M) -8 (1e-8 M))

B7: C0120903 human Alya IgG1 (antibody, V domains shown)
VH: EVQLVQSGAEVKKPGSSMKVSCKASGGTFNSYTINWVRQAPGQGLEWVGGFIPIFGTADYAQKFHGRVAITADESMSTAYMELSSLRSEDTAVYYCARAPLGSEPFDYWGQGTMVTVSS
VL: SYVLTQPPSVSVAPGQTARITCGGNNIGSKSVHWYQQKPGQAPVLVVYDDSDRPSGIPERFSGSNSGNTATLTISRVEAGDEADYYCQVWDSSSDHLVFGGGTKLTVL
notes: as for B1
binding result [1]: no binding (tested: log (M) -8 (1e-8 M))

B8: mouse 5E3 expressed as human IgG1 Alya (antibody, V domains shown)
VH: QVQLQQPGAELVMPGASVKMSCKASGYTFTDYWMHWVKQRPGQGLEWIGAIDTSDSYTSYNQKFKGKATLTVDESSSTAYMQLSSLTSEDSAVYYCARDYGNFYYYAMDYWGQGTSVTVSS
VL: QAVVTQESALTTSPGETVTLTCRSSTGAVTTSNYANWVQEKPDHLFTGLIGGTNNRAPGVPARFSGSLIGDKAALTITGAQTEDEAIYFCALWYSNHWVFGGGTKLTVL
notes: Mouse variable domains on human IgG1 Alya constant (pEU1.22; 239iCys and S442C, EU numbering); purified, unconjugated; also called 5E3 IgG1 Alya
binding result [1]: no binding (tested: log (M) -8 (1e-8 M))

B9: 5Hg2-5Lg1 human Alya IgG1 (antibody, V domains shown)
VH: QVQLVQSGAEVKKPGASVKVSCKASGYTFTDYWMHWVRQAPGQRLEWMGAIDTSDSYTSYNQKFKGRVTITRDTSASTAYMELSSLRSEDTAVYYCARDYGNFYYYAMDYWGQGTLVTVSS
VL: QAVVTQEPSLTVSPGGTVTLTCRSSTGAVTTSNYANWFQQKPGQAPRTLIYGTNNRAPWTPARFSGSLLGGKAALTLSGAQPEDEAEYYCALWYSNHWVFGGGTKLTVL
notes: as for B4
binding result [2]: binds

B10: 5Hg4-5Lg1 human Alya IgG1 (antibody, V domains shown)
VH: QVQLVQSGSELKKPGASVKVSCKASGYTFTDYWMHWVRQAPGQGLEWMGAIDTSDSYTSYNQKFKGRFVFSLDTSVSTAYLQICSLKAEDTAVYYCARDYGNFYYYAMDYWGQGTLVTVSS
VL: QAVVTQEPSLTVSPGGTVTLTCRSSTGAVTTSNYANWFQQKPGQAPRTLIYGTNNRAPWTPARFSGSLLGGKAALTLSGAQPEDEAEYYCALWYSNHWVFGGGTKLTVL
notes: as for B4
binding result [2]: binds

B11: 5Hg2-5Lg3 human Alya IgG1 (antibody, V domains shown)
VH: QVQLVQSGAEVKKPGASVKVSCKASGYTFTDYWMHWVRQAPGQRLEWMGAIDTSDSYTSYNQKFKGRVTITRDTSASTAYMELSSLRSEDTAVYYCARDYGNFYYYAMDYWGQGTLVTVSS
VL: QTVVTQEPSFSVSPGGTVTLTCRSSTGAVTTSNYANWYQQTPGQAPRTLIYGTNNRAPGVPDRFSGSILGNKAALTITGAQADDESDYYCALWYSNHWVFGGGTKLTVL
notes: as for B4
binding result [2]: binds

B12: 5Hg1-5Lg1 human Alya IgG1 (antibody, V domains shown)
VH: QVQLVQSGAEVKKPGASVKVSCKASGYTFTDYWMHWVRQAPGQGLEWMGAIDTSDSYTSYNQKFKGRVTMTRDTSTSTVYMELSSLRSEDTAVYYCARDYGNFYYYAMDYWGQGTLVTVSS
VL: QAVVTQEPSLTVSPGGTVTLTCRSSTGAVTTSNYANWFQQKPGQAPRTLIYGTNNRAPWTPARFSGSLLGGKAALTLSGAQPEDEAEYYCALWYSNHWVFGGGTKLTVL
notes: as for B4
binding result [2]: binds

B13: 5Hg2-5Lg2 human Alya IgG1 (antibody, V domains shown)
VH: QVQLVQSGAEVKKPGASVKVSCKASGYTFTDYWMHWVRQAPGQRLEWMGAIDTSDSYTSYNQKFKGRVTITRDTSASTAYMELSSLRSEDTAVYYCARDYGNFYYYAMDYWGQGTLVTVSS
VL: QAVVTQEPSLTVSPGGTVTLTCRSSTGAVTTSNYANWFQQKPGQAPRTLIYGTNNRAPWTPARFSGSLLGGKAALTLLGAQPEDEAEYYCALWYSNHWVFGGGTKLTVL
notes: as for B4
binding result [2]: binds

B14: 5Hg1-5Lg2 human Alya IgG1 (antibody, V domains shown)
VH: QVQLVQSGAEVKKPGASVKVSCKASGYTFTDYWMHWVRQAPGQGLEWMGAIDTSDSYTSYNQKFKGRVTMTRDTSTSTVYMELSSLRSEDTAVYYCARDYGNFYYYAMDYWGQGTLVTVSS
VL: QAVVTQEPSLTVSPGGTVTLTCRSSTGAVTTSNYANWFQQKPGQAPRTLIYGTNNRAPWTPARFSGSLLGGKAALTLLGAQPEDEAEYYCALWYSNHWVFGGGTKLTVL
notes: as for B4
binding result [2]: binds

B15: C0120918 human Alya IgG1 (antibody, V domains shown)
VH: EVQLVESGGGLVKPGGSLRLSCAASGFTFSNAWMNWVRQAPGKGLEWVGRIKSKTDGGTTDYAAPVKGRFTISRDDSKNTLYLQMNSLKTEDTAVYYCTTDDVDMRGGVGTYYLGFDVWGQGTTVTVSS
VL: SYELTQPPSVSVSPGQTARITCSGDALPKQYAYWYQQKPGQAPVLVIYKDSERPSGIPERFSGSSSGTTVTLTISGVQAEDEADYYCQSADSSGTWVFGGGTKVTVL
notes: as for B1
binding result [1]: no binding (tested: log (M) -8 (1e-8 M))
